Source: patent publication US20210238289A1 (Biogen, published 2021)
Substitutions are numbered along the chain they refer to. Numbers in names are those of the source.

How the values were obtained:
[1] = target: T1, CD16 (FcγRIIIa V158) (UniProt P08637 17-208); test: solution competition SPR (Biacore)
T1 construct: V158 allotype as printed
Protocol: (§1) Binding to Fcγ receptors was analyzed using solution affinity surface plasmon resonance (ref Day E S, Cachero T G, Qian F, Sun Y, Wen D, Pelletier M, Hsu Y M, Whitty A. Selectivity of BAFF/BLyS and APRIL for binding to the TNF family receptors BAFFR/BR3 and BCMA. Biochemistry. 2005 Feb. 15; 44(6):1919-31.) The method utilizes conditions of so-called “mass-transport-limited” binding, in which the initial rate of ligand binding (protein binding to the senor chip) is proportional to the concentration of ligand in solution (ref BIApplications Handbook (1994) Chapter 6: Concentration measurement, pp 6-1-6-10, Pharmacia Biosensor AB). Under these conditions, binding of the soluble analyte (protein flowing over chip surface) to the immobilized protein on the chip is fast compared to the diffusion of the analyte into the dextran matrix on the chip surface. Therefore, the diffusion properties of the analyte and the concentration of analyte in solution flowing over the chip surface determine the rate at which analyte binds to the chip. In this experiment, the concentration of free Fc receptor in solution is determined by the initial rate of binding to a CM5 Biacore chip containing an immobilized IgG1 MAb. Into these Fc receptor solutions were titrated the stability engineered constructs (see Table 10.1 below). […] Initial binding rates were obtained from raw sensorgram data (FIG. 14). […] The results are shown in Table 10.1 and reported as the average of two titrations.

[2] = target: T2, CD64 (FcγRI) (UniProt P12314 16-288, limits assumed); test: solution competition SPR (Biacore); construct titrated into receptor, free receptor read on immobilized IgG1 MAb
Protocol: as §1

[3] = target: T1, CD16 (FcγRIIIa V158); test: solution competition SPR (Biacore); text value differing from the table (100.2)
Protocol: Binding to Fcγ receptors was analyzed using solution affinity surface plasmon resonance (ref Day E S, Cachero T G, Qian F, Sun Y, Wen D, Pelletier M, Hsu Y M, Whitty A. Selectivity of BAFF/BLyS and APRIL for binding to the TNF family receptors BAFFR/BR3 and BCMA. Biochemistry. 2005 Feb. 15; 44(6):1919-31.) The method utilizes conditions of so-called “mass-transport-limited” binding, in which the initial rate of ligand binding (protein binding to the senor chip) is proportional to the concentration of ligand in solution (ref BIApplications Handbook (1994) Chapter 6: Concentration measurement, pp 6-1-6-10, Pharmacia Biosensor AB). Under these conditions, binding of the soluble analyte (protein flowing over chip surface) to the immobilized protein on the chip is fast compared to the diffusion of the analyte into the dextran matrix on the chip surface. Therefore, the diffusion properties of the analyte and the concentration of analyte in solution flowing over the chip surface determine the rate at which analyte binds to the chip. In this experiment, the concentration of free Fc receptor in solution is determined by the initial rate of binding to a CM5 Biacore chip containing an immobilized IgG1 MAb. Into these Fc receptor solutions were titrated the stability engineered constructs (see Table 10.1 below). […] Initial binding rates were obtained from raw sensorgram data (FIG. 14). […]

[4] = target: T1, CD16 (FcγRIIIa V158); test: solution competition SPR (Biacore); construct titrated into receptor, free receptor read on immobilized IgG1 MAb
Protocol: as §1

[5] = target: T3, human C1q (human, UniProt P02745 23-245; P02746 28-253; P02747 29-245); test: C1q ELISA
T3 construct: Bought protein; also called complement factor C1q; Sigma human C1q (C0660)
Protocol: The C1q binding assay was be performed by coating 96 well Maxisorb ELISA plates (Nalge-Nunc Rochester, N.Y., USA) with 50 μl recombinant soluble human CD40 ligand at 10 ug/ml overnight at 4° C. in PBS. The wells were aspirated and washed three times with wash buffer (PBS, 0.05% Tween 20) and blocked for 1 hour with 200 µl/well of block/diluent buffer (0.1 M Na2HP04, pH 7.0, 1 M NaCl, 0.05% Tween 20, 1% gelatin). The antibodies were diluted in block/diluent buffer with 3-fold dilutions and incubated for 2 hours at room temperature.
After aspirating and washing as above, 50 pll/well of sheep anti C1q (Serotec AHP033), diluted 3, 560-fold in block/diluent buffer, were added. After incubation for 1 h at room temperature, the wells were aspirated and washed as above. 50 pll/well of donkey anti-sheep IgG HRP conjugate (Jackson ImmunoResearch 713-035-147) diluted to 1:10,000 in block/diluent were then added, and the wells incubated for 1 h at room temperature.
After aspirating and washing as above, 100 all TMB substrate (420 plM TMB, 0.004% H2O2 in 0.1 M sodium acetate/citric acid buffer, pH 4.9) were added and incubated for 2 min before the reaction was stopped with 100 ul 2 N sulfuric acid. The absorbance was read at 450 nm with a Softmax PRO instrument, and Softmax software was used to determine the relative binding affinity (C value) with a 4-parameter fit.

[6] = target: T2, CD64 (FcγRI); test: solution competition SPR (Biacore)
Protocol: as §1

[7] = target: T1, CD16 (FcγRIIIa V158); test: solution competition SPR (Biacore); remark: listed apart in the source
[8] = target: T4, human alpha-4 integrin (human, UniProt P13612 34-970, limits assumed); test: in vitro binding affinity comparison; method not described
T4 construct: also called the human receptor

[9] = target: T5, cynomolgus monkey alpha-4 integrin (cynomolgus monkey, UniProt A0A2K5U6S2 34-970); test: as above
T5 construct: also called cynomolgus alpha-4 integrin

[10] = target: T6, VLA receptors (alpha-4 integrin) of cynomolgus monkeys in vivo (cynomolgus monkey, UniProt A0A2K5U6S2 34-1032); test: model-estimated (direct Emax PKPD model) EC50 for the formation of drug-bound VLA in cynomolgus monkeys
T6 construct: whole, on cells; Receptor occupancy measured in dosed animals; also called free VLA receptors
From the text: HP1/2 human PKs were projected through allometric scaling on monkey PK parameters (k10, k12, k21 and V1). See Singh, A. P et al. The AAPS Journal, 17(2), 389-399. […] The inherent monkey parameters were directly applied to human including Km, V max and the PD parameters (Eₘ, EC₅₀, E₀ and V). […] See Muralidharan, K. K. et al. Journal of Clinical Pharmacology, 57(8), 1017-1030. The data were integrated using an empirical scaling approach combining the EC₅₀ parameter values obtained in monkeys (m) and humans (h), after adjusting for potency (Kd) differences across species: […]

B1: CN578 (hu5c8 IgG1 T299K, aglycosylated) (antibody)
heavy: not shown
light: DIVLTQSPATLSVSPGERATISCRASQRVSSSTYSYMHWYQQKPGQPPKLLIKYASNLESGVPARFSGSGSGTDFTLTISSVEPEDFATYYCQHSWEIPPTFGGGTKLEIKRTVAAPSVFIFPPSDEQLKSGTASVVCLLNNFYPREAKVQWKVDNALQSGNSQESVTEQDSKDSTYSLSSTLTLSKADYEKHKVYACEVTHQGLSSPVTKSFNRGEC
modifications: N-terminal Q largely converted to pyroglutamic acid (mass spectrometry)
notes: Mass spectrometry assigns HC 1-447, which fits VH (118) + IgG1 CH1 (98) + Fc moiety (231); also called aglycosylated IgG1 A299K
**Q.** What does the source list for B1?
**A.** IC50 [1]: 1320 µM; IC50 [2]: 1420 µM

B2: IgG1 control antibody (hu5c8 IgG1, glycosylated) (antibody)
heavy: not shown
light: B1 light
notes: also called IgG1 wild type
**Q.** B2 was tested. Which IC50 [3] did it give?
**A.** Its IC50 is 105 µM.

**Q.** And the IC50 [2]?
**A.** The IC50 was 9.64 µM.

**Q.** And the IC50 [4]?
**A.** The IC50 was 100 µM.

B3: EAG2287 (hu5c8 S228P/T299K, IgG4 CH2/IgG1 CH3 chimera, aglycosylated) (antibody)
heavy: QVQLVQSGAEVVKPGASVKLSCKASGYIFTSYYMYWVKQAPGQGLEWIGEINPSNGDTNFNEKFKSKATLTVDKSASTAYMELSSLRSEDTAVYYCTRSDGRNDMDSWGQGTLVTVSSASTKGPSVFPLAPCSRSTSESTAALGCLVKDYFPEPVTVSWNSGALTSGVHTFPAVLQSSGLYSLSSVVTVPSSSLGTKTYTCNVDHKPSNTKVDKRVESKYGPPCPPCPAPEFLGGPSVFLFPPKPKDTLMISRTPEVTCVVVDVSQEDPEVQFNWYVDGVEVHNAKTKPREEQFNSKYRVVSVLTVLHQDWLNGKEYKCKVSNKGLPSSIEKTISKAKGQPREPQVYTLPPSRDELTKNQVSLTCLVKGFYPSDIAVEWESNGQPENNYKTTPPVLDSDGSFFLYSKLTVDKSRWQQGNVFSCSVMHEALHNHYTQKSLSLSPG
light: B1 light
notes: also called pEAG2287; copies: 2 + 2
**Q.** Which results are given for B3?
**A.** binding result [5]: no binding; IC50 [6]: 4040 µM; binding result [1]: no binding

B4: EC326 (hu5c8 IgG4.P S228P, T307P, L309K, D399S, glycosylated) (antibody)
heavy: B3 heavy with K297T, T305P, L307K, R353Q, D354E, L356M, D397S, K407R, Q417E, P443L
light: B1 light
modifications: N-terminal Q largely converted to pyroglutamic acid; N-linked G0F/G1F/G2F glycans (mass spectrometry)
notes: copies: 2 + 2
**Q.** B4 was tested. Which IC50 [2] did it give?
**A.** The IC50 was 7.56 µM.

**Q.** What about the IC50 [4] of the same binder?
**A.** Its IC50 is 380 µM.

B5: EAG2296 (hu5c8 S228P/T299A, IgG4 CH2/IgG1 CH3 chimera, aglycosylated) (antibody)
heavy: B3 heavy with K297A
light: B1 light
notes: also called pEAG2296; copies: 2 + 2
**Q.** Does B5 bind [5]?
**A.** Result: no binding

**Q.** What about the IC50 [1] of the same binder?
**A.** The IC50 was 1320 µM.

B6: EAG2476 (YC406-Fc; agly IgG4-Fc T299K, T307P, L309K, D399S) (other)
Fc: ESKYGPPCPPCPAPEFLGGPSVFLFPPKPKDTLMISRTPEVTCVVVDVSQEDPEVQFNWYVDGVEVHNAKTKPREEQFNSKYRVVSVLPVKHQDWLNGKEYKCKVSNKGLPSSIEKTISKAKGQPREPQVYTLPPSQEEMTKNQVSLTCLVKGFYPSDIAVEWESNGQPENNYKTTPPVLSSDGSFFLYSRLTVDKSRWQEGNVFSCSVMHEALHNHYTQKSLSLSLG
modifications: Aglycosylated through T299K. The Fc is a homodimer; one chain is given.
**Q.** For B6, which IC50 [7] is on record?
**A.** The IC50 was 1320 µM.

B7: HP1/2 H1/L3 huIgG4P agly (N297Q, EU Numbering)/IgG1 chimera (antibody, V domains shown)
VH: EVQLVQSGAEVKKPGATVKISCKASGFNIKDTYMHWVQQAPGKGLEWMGRIDPASGDTKYDPKFQVRVTITADTSTDTAYMELSSLRSEDTAVYYCADGMWVSTGYALDFWGQGTLVTVSS
VL: SIVMTQSPDSLAVSLGERATINCKASQSVTNDVAWYQQKPGQPPKLLIYYASNRYTGVPDRFSGSGYGTDFTFTISSLQAEDVATYFCQQDYSSPYTFGQGTKVEIKR
notes: also called BIIB107; HP1/2 G4P agly/G1
**Q.** What does the source list for B7?
**A.** fold higher affinity than natalizumab Fab fragment [8]: > 19 fold; fold higher affinity than natalizumab intact [8]: ~5 fold; fold weaker affinity than to the human receptor [9]: ~5 fold; EC50 [10]: 4.73 ng/mL

B8: HP1/2 Fab fragment (Fab, V domains shown)
VH: B7 VH
VL: B7 VL
**Q.** B8 was tested. Which “fold higher affinity than natalizumab Fab fragment” value [8] did it give?
**A.** Its value is roughly 6 fold.

**Q.** And the “fold weaker affinity than to the human receptor” value [9]?
**A.** Its value is roughly 6 fold.
